Test results reported in doi:10.1101/2022.03.04.482944 (bioRxiv, 2022).

Experiments:
Test in all cases: Ligand Surface Binding Assay
ACVR2A-Halo = ACVR2A-Halo (human, UniProt P27037 20-513)
ACVR2B-Halo = ACVR2B-Halo (human, UniProt Q13705 19-512)
BMPR2-Halo = biological target: T1, BMPR2-Halo (human, UniProt Q13873 27-1038)
T1 sequence (looked up): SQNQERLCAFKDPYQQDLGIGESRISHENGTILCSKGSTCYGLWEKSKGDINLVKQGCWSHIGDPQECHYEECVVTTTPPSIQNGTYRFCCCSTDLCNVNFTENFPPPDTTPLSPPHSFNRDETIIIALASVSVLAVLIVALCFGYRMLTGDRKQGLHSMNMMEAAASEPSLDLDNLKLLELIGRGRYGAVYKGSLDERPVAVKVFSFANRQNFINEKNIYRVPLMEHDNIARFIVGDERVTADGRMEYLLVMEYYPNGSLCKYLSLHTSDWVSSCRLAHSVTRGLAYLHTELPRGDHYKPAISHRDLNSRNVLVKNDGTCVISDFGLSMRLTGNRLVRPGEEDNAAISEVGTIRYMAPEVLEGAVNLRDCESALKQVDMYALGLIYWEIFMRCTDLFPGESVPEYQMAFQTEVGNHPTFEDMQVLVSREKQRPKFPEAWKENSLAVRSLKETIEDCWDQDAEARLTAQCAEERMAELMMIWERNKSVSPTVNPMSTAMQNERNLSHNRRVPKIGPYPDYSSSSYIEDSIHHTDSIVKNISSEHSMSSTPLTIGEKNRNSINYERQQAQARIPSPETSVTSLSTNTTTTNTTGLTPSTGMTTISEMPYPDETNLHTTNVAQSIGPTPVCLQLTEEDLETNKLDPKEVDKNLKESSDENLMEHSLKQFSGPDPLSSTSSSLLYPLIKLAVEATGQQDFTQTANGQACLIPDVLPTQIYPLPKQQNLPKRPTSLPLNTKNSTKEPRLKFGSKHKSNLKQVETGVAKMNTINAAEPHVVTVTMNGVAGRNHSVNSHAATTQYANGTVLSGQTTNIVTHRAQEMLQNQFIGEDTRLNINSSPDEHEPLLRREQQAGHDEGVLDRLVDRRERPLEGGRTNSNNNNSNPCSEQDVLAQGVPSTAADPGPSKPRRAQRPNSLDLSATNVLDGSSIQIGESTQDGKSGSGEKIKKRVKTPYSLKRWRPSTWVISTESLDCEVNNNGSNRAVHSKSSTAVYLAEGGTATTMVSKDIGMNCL

Sequence of ACVR2B-Halo (Q13705 19-512): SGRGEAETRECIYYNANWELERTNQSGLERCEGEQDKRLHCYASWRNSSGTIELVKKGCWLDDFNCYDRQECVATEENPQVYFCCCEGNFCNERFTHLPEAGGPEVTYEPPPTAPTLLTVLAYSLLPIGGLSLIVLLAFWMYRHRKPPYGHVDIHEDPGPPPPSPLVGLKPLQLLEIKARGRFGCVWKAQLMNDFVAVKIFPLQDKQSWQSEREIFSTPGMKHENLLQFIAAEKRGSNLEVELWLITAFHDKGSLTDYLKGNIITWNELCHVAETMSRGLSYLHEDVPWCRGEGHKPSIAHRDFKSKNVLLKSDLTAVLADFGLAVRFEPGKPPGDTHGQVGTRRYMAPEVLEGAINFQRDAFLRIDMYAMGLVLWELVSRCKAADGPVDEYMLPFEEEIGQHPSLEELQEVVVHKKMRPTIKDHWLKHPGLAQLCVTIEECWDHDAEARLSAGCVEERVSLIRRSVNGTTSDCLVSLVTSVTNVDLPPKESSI
Sequence of ACVR2A-Halo (P27037 20-513): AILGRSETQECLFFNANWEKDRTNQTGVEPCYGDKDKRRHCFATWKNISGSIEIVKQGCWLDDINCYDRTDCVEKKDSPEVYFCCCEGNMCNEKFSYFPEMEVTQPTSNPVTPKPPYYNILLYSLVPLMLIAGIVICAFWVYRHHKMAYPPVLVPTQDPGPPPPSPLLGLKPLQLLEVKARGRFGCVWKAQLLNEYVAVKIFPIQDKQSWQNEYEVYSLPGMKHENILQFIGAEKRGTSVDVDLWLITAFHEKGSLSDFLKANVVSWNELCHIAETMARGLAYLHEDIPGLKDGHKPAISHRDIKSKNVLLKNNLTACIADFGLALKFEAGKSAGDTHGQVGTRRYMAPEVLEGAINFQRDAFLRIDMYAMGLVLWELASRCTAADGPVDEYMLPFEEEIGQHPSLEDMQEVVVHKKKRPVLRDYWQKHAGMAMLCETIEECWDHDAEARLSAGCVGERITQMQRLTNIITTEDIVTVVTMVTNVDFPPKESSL

- fold Activin A-Cy5 binding relative to untransfected cells (ACVR2A-Halo): ~29 fold
- fold Activin A-Cy5 binding relative to untransfected cells (ACVR2B-Halo): ~84 fold
- fold Activin A-Cy5 binding relative to untransfected cells (BMPR2-Halo): ~27 fold
B1: Activin A-Cy5 (ligand, UniProt P08476 311-426, looked up)
chain: GLECDGKVNICCKKQFFVSFKDIGWNDWIIAPSGYHANYCEGECPSHIAGTSGSSLSFHSTVINHYRMRGHSPFANLKSCCVPTKLRPMSMLYYDDGQNIIKKDIQNMIVEECGCS
modifications: Cy5 label (NHS-activated Cy5, protein:dye ratio 1:2 in the labelling reaction)
